Assay [1] has as its target T1, FcγRIIIa (human, UniProt P08637 17-208).
T1 construct: extracellular domain; also called FcgRIIIa; CD16A; not shown: His tag attached to the C terminus
Kind of assay: ratio of SPR KDs: KD of GpH7-A5/GpH7-B78/GpL16-k0 divided by KD of this antibody. The method, then: To assess this hypothesis, GpH7-A53 (SEQ ID NO: 42) resulting from the introduction of S239D into GpH7-A5 was constructed, and, this is combined with GpH7-B78 introduced with S239D, A330L, and I332E, and the expression and preparation were performed according to the method described in Reference Example 1. The effect of the combination of S239D and S239D, A330L, and I332E was assessed by comparing the FcγRIIIa binding between the heterodimerized and homodimerized antibodies with S239D, A330L, and I332E according to the method described in Reference Example 2 (Table 14).
(§1) Analysis of interaction between objective antibody and the FcγR was carried out using Biacore T100 (GE Healthcare). HBS-EP+ (GE Healthcare) was used as the running buffer, and the measurement temperature was set to 25° C. Chips produced by immobilizing the antigen peptide by the amine coupling method to a Series S Sencor Chip CM5 (GE Healthcare), or alternatively, chips produced by allowing preliminarily biotinylated antigen peptides to interact with and immobilize onto a Series S Sensor Chip SA (certified) (GE Healthcare) were used. Antibodies of interest were captured onto an antigen peptide-immobilized chip, and allowed to interact to each FcγR diluted with running buffer. To regenerate and repeatedly use the chip, the antibodies captured on the chip were washed off by reacting 10 mM glycine-HCl, pH 1.5.
(§2) Specifically, to calculate association rate constant ka (L/mol/s) and dissociation rate constant kd (1/s), sensorgrams obtained by measurement were processed for global fitting by Biacore Evaluation Software using 1:1 Langmuir binding model and dissociation constant KD (mol/1) was calculated from the resulting values.

Assay [2] concerns the target T1, FcγRIIIa. Kind of assay: ratio of SPR KDs: KD of GpH7-G1d/GpL16-k0 divided by KD of this antibody. How it is done:
(§3) The prepared antibodies were compared for the FcγRIIIa-binding activity using, as an indicator, KD for FcγRIIIa that was determined according to the method described in Reference Example 2.
as §1, §2

Assay [3] has as its target T1, FcγRIIIa. Kind of assay: ratio of SPR KDs: KD of GpH7-A5/GpH7-B3/GpL16-k0 divided by KD of this antibody. The method, then: as §3, §1, §2
Assay [4] deals with T1, FcγRIIIa. Kind of assay: ratio of SPR KDs: KD of GpH7-TA7/GpH7-B78/GpL16-k0 divided by KD of this antibody.
Description: First, it was considered which H chain should be introduced with Y296W. GpH7-TA52 (SEQ ID NO: 44) resulting from the introduction of the mutation Y296W into GpH7-TA7 was constructed, and expressed and prepared in combination with GpH7-B78 according to the method described in Reference Example 1. Furthermore, GpH7-TA58 (SEQ ID NO: 45) resulting from the introduction of Y296W into GpH7-B78 was constructed, and expressed and prepared in combination with GpH7-TA22 according to the method described in Reference Example 1. To assess the effects of combinations with Y296W, the prepared antibodies were compared for the FcγRIIIa-binding activity according to the method described in Reference Example 2 (Table 16).
as §1

T1 sequence (P08637 17-208): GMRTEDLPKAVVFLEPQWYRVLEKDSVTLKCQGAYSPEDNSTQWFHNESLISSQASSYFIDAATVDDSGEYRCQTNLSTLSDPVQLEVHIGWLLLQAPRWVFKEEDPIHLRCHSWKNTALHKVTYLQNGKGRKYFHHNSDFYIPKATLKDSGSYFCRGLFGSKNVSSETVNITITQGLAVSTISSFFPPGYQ

B1: GpH7-A5/GpH7-B78/GpL16-k0 (antibody, human IgG1, kappa)
heavy 1: not shown
heavy 2: QVQLVQSGAEVKKPGASVTVSCKASGYTFTDYEMHWIRQPPGEGLEWIGAIDPKTGDTAYSESFQDRVTLTADKSTSTAYMELSSLTSEDTAVYYCTRFYSYTYWGQGTLVTVSSASTKGPSVFPLAPSSKSTSGGTAALGCLVKDYFPEPVTVSWNSGALTSGVHTFPAVLQSSGLYSLSSVVTVPSSSLGTQTYICNVNHKPSNTKVDKKVEPKSCDKTHTCPPCPAPELLGGPDVFLFPPKPKDTLMISRTPEVTCVVVDVSHEDPEVKFNWYVDGVEVHNAKTKPREEQYNSTYRVVSVLTVLHQDWLNGKEYKCKVSNKALPLPEEKTISKAKGQPREPQVYTLPPSRDELTKNQVSLTCLVKGFYPSDIAVEWESNGQPENNYKTTPPVLDSDGSFFLYSKLTVDKSRWQQGNVFSCSVMHEALHNHYTQESLSLSP
light: DIVMTQSPLSLPVTPGEPASISCQASESLVHSNRNTYLHWYLQKPGQSPQLLIYKVSNRFSGVPDRFSGSGSGTDFTLKISRVEAEDVGVYYCSQNTHVPPTFGQGTKVEIERTVAAPSVFIFPPSDEQLKSGTASVVCLLNNFYPREAKVQWKVDNALQSGNSQESVTEQDSKDSTYSLSSTLTLSKADYEKHKVYACEVTHQGLSSPVTKSFNRGEC
notes: Anti-glypican-3 IgG1 heterodimer; S239D/A330L/I332E in H2 only
B1: the KD ratio in the assay with FcγRIIIa [1] stood at 1 fold. In the assay with FcγRIIIa [2], the “KD ratio 1” value came out at 23 fold. For the same molecule, the “KD ratio 2” value with FcγRIIIa [3] stood at 30 fold.

B2: GpH7-A57/GpH7-B78/GpL16-k0 (antibody, human IgG1, kappa)
heavy 1: QVQLVQSGAEVKKPGASVTVSCKASGYTFTDYEMHWIRQPPGEGLEWIGAIDPKTGDTAYSESFQDRVTLTADKSTSTAYMELSSLTSEDTAVYYCTRFYSYTYWGQGTLVTVSSASTKGPSVFPLAPSSKSTSGGTAALGCLVKDYFPEPVTVSWNSGALTSGVHTFPAVLQSSGLYSLSSVVTVPSSSLGTQTYICNVNHKPSNTKVDKKVEPKSCDKTHTCPPCPAPELLGGPDVFLFPPKPKDTLMISRTPEVTCVVVDVSHEDPEVKFNWYVDGVEVHNAKTKPREEQYNSTYRVVSVLTVLHQDWLNGKEYKCKVSNKALPLPEEKTISKAKGQPREPQVYTLPPSRKELTKNQVSLTCLVKGFYPSDIAVEWESNGQPENNYKTTPPVLDSDGSFFLYSKLTVDKSRWQQGNVFSCSVMHEALHNRYTQKSLSLSP
heavy 2: QVQLVQSGAEVKKPGASVTVSCKASGYTFTDYEMHWIRQPPGEGLEWIGAIDPKTGDTAYSESFQDRVTLTADKSTSTAYMELSSLTSEDTAVYYCTRFYSYTYWGQGTLVTVSSASTKGPSVFPLAPSSKSTSGGTAALGCLVKDYFPEPVTVSWNSGALTSGVHTFPAVLQSSGLYSLSSVVTVPSSSLGTQTYICNVNHKPSNTKVDKKVEPKSCDKTHTCPPCPAPELLGGPDVFLFPPKPKDTLMISRTPEVTCVVVDVSHEDPEVKFNWYVDGVEVHNAKTKPREEQYNSTYRVVSVLTVLHQDWLNGKEYKCKVSNKALPLPEEKTISKAKGQPREPQVYTLPPSRDELTKNQVSLTCLVKGFYPSDIAVEWESNGQPENNYKTTPPVLDSDGSFFLYSKLTVDKSRWQQGNVFSCSVMHEALHNHYTQESLSLSP
light: DIVMTQSPLSLPVTPGEPASISCQASESLVHSNRNTYLHWYLQKPGQSPQLLIYKVSNRFSGVPDRFSGSGSGTDFTLKISRVEAEDVGVYYCSQNTHVPPTFGQGTKVEIERTVAAPSVFIFPPSDEQLKSGTASVVCLLNNFYPREAKVQWKVDNALQSGNSQESVTEQDSKDSTYSLSSTLTLSKADYEKHKVYACEVTHQGLSSPVTKSFNRGEC
notes: Anti-glypican-3 IgG1; The two chains differ only in D356K/H435R and K439E
As for B2, in the assay with FcγRIIIa [1], the KD ratio was 8.7 fold. For the same molecule, in the assay with FcγRIIIa [2], the “KD ratio 1” value was 199 fold. Also, in the assay with FcγRIIIa [3], the “KD ratio 2” value came out at 263 fold.

B3: GpH7-TA7/GpH7-TA58/GpL16-k0 (antibody, human IgG1, kappa)
heavy 1: QVQLVQSGAEVKKPGASVTVSCKASGYTFTDYEMHWIRQPPGEGLEWIGAIDPKTGDTAYSESFQDRVTLTADKSTSTAYMELSSLTSEDTAVYYCTRFYSYTYWGQGTLVTVSSASTKGPSVFPLAPSSKSTSGGTAALGCLVKDYFPEPVTVSWNSGALTSGVHTFPAVLQSSGLYSLSSVVTVPSSSLGTQTYICNVNHKPSNTKVDKKVEPKSCDKTHTCPPCPAPEYLWGPSVFLFPPKPKDTLMISRTPEVTCVVVDVSHEDPEVKFNWYVDGVEVHNAKTKPREEQYNATYRVVSVLTVLHQDWLNGKEYKCKVSNKALPAPIEKTISKAKGQPREPQVYTLPPSRKELTKNQVSLTCLVKGFYPSDIAVEWESNGQPENNYKTTPPVLDSDGSFFLYSKLTVDKSRWQQGNVFSCSVMHEALHNRYTQKSLSLSP
heavy 2: QVQLVQSGAEVKKPGASVTVSCKASGYTFTDYEMHWIRQPPGEGLEWIGAIDPKTGDTAYSESFQDRVTLTADKSTSTAYMELSSLTSEDTAVYYCTRFYSYTYWGQGTLVTVSSASTKGPSVFPLAPSSKSTSGGTAALGCLVKDYFPEPVTVSWNSGALTSGVHTFPAVLQSSGLYSLSSVVTVPSSSLGTQTYICNVNHKPSNTKVDKKVEPKSCDKTHTCPPCPAPELLGGPDVFLFPPKPKDTLMISRTPEVTCVVVDVSHEDPEVKFNWYVDGVEVHNAKTKPREEQWNSTYRVVSVLTVLHQDWLNGKEYKCKVSNKALPLPEEKTISKAKGQPREPQVYTLPPSRDELTKNQVSLTCLVKGFYPSDIAVEWESNGQPENNYKTTPPVLDSDGSFFLYSKLTVDKSRWQQGNVFSCSVMHEALHNHYTQESLSLSP
light: DIVMTQSPLSLPVTPGEPASISCQASESLVHSNRNTYLHWYLQKPGQSPQLLIYKVSNRFSGVPDRFSGSGSGTDFTLKISRVEAEDVGVYYCSQNTHVPPTFGQGTKVEIERTVAAPSVFIFPPSDEQLKSGTASVVCLLNNFYPREAKVQWKVDNALQSGNSQESVTEQDSKDSTYSLSSTLTLSKADYEKHKVYACEVTHQGLSSPVTKSFNRGEC
notes: Anti-glypican-3 IgG1 heterodimer; L234Y/G236W/S298A in H1, S239D/A330L/I332E/Y296W in H2
Take B3: the KD ratio with FcγRIIIa [4] amounted to 1.2 fold.

B4: GpH7-TA52/GpH7-B78/GpL16-k0 (antibody, human IgG1, kappa)
heavy 1: QVQLVQSGAEVKKPGASVTVSCKASGYTFTDYEMHWIRQPPGEGLEWIGAIDPKTGDTAYSESFQDRVTLTADKSTSTAYMELSSLTSEDTAVYYCTRFYSYTYWGQGTLVTVSSASTKGPSVFPLAPSSKSTSGGTAALGCLVKDYFPEPVTVSWNSGALTSGVHTFPAVLQSSGLYSLSSVVTVPSSSLGTQTYICNVNHKPSNTKVDKKVEPKSCDKTHTCPPCPAPEYLWGPSVFLFPPKPKDTLMISRTPEVTCVVVDVSHEDPEVKFNWYVDGVEVHNAKTKPREEQWNATYRVVSVLTVLHQDWLNGKEYKCKVSNKALPAPIEKTISKAKGQPREPQVYTLPPSRKELTKNQVSLTCLVKGFYPSDIAVEWESNGQPENNYKTTPPVLDSDGSFFLYSKLTVDKSRWQQGNVFSCSVMHEALHNRYTQKSLSLSP
heavy 2: QVQLVQSGAEVKKPGASVTVSCKASGYTFTDYEMHWIRQPPGEGLEWIGAIDPKTGDTAYSESFQDRVTLTADKSTSTAYMELSSLTSEDTAVYYCTRFYSYTYWGQGTLVTVSSASTKGPSVFPLAPSSKSTSGGTAALGCLVKDYFPEPVTVSWNSGALTSGVHTFPAVLQSSGLYSLSSVVTVPSSSLGTQTYICNVNHKPSNTKVDKKVEPKSCDKTHTCPPCPAPELLGGPDVFLFPPKPKDTLMISRTPEVTCVVVDVSHEDPEVKFNWYVDGVEVHNAKTKPREEQYNSTYRVVSVLTVLHQDWLNGKEYKCKVSNKALPLPEEKTISKAKGQPREPQVYTLPPSRDELTKNQVSLTCLVKGFYPSDIAVEWESNGQPENNYKTTPPVLDSDGSFFLYSKLTVDKSRWQQGNVFSCSVMHEALHNHYTQESLSLSP
light: DIVMTQSPLSLPVTPGEPASISCQASESLVHSNRNTYLHWYLQKPGQSPQLLIYKVSNRFSGVPDRFSGSGSGTDFTLKISRVEAEDVGVYYCSQNTHVPPTFGQGTKVEIERTVAAPSVFIFPPSDEQLKSGTASVVCLLNNFYPREAKVQWKVDNALQSGNSQESVTEQDSKDSTYSLSSTLTLSKADYEKHKVYACEVTHQGLSSPVTKSFNRGEC
notes: Anti-glypican-3 IgG1 heterodimer; L234Y/G236W/S298A/Y296W in H1, S239D/A330L/I332E in H2
Regarding B4, the KD ratio in the assay with FcγRIIIa [4] stood at 1.8 fold.

Source of the values: patent publication US20150344570A1 (published 2015).
